According to the Human Domainome abundance scans (Beltran et al. 2025):
± gives the uncertainty stated by the source.

B1: Zinc finger MYM-type protein 6, residues 427 to 504; numbered along this chain, O95789 (parent)
chain: KLKCQHCNHLFATKPELLFYKGKMFLFCGKNCSDEYKKKNKVVAMCDYCKLQKIIKETVRFSGVDKPFCSEVCKFLSA

Variants of: B1
Assay: abundance fitness (aPCA) (normalised: wild type 0, dead -1); higher = more abundant; growth selection in yeast, the domain comes from the species named
Conditions: Homo sapiens

Variant	abundance fitness
KLKCQHCNHLFATKPELLFYKGKMFLFCGKNCSDEYKKKNKVVAMCDYCKLQKIIKETWRFSGVDKPFCSEVCKFLSA [V59W]	-0.344 ± 0.17
KLKCQHCNHLFATKPELLFYKGKMFLFCGKNCSDEYKKKNKVVAMCDYCKLQKIIKETLRFSGVDKPFCSEVCKFLSA [V59L]	0.051 ± 0.13
KLKCQHCNHLFATKPELLFYKGKMFLFCGKNCSDEYTKKNKVVAMCDYCKLQKIIKETVRFSGVDKPFCSEVCKFLSA [K37T]	-0.099 ± 0.04
KLKCQHCNHLFATKPELLFYKGKMFLFCGKNCSDEYKKKNKVVAMCDYCKLQKIIKETVRFSGVDKPFCSEVCKFYSA [L76Y]	-0.189 ± 0.33
KLKCQHCNHLFATKPELLFYKGKMFLFCGKNCSDEYKKKNKVVAMCDYCKLQKIIKETVRFSGVDKPFCSEVCKFGSA [L76G]	-0.052 ± 0.073
KLKCQHCNHLFATKPELLFYKGKMFLFCGKNCSDEYKKKNKVVAMCDYCKLQKIIKETVRFSGVDKPFCSEVCKFPSA [L76P]	-0.5 ± 0.35
KLKCQHCNHLFATKPELLFYKGKMFLFCGKNWSDEYKKKNKVVAMCDYCKLQKIIKETVRFSGVDKPFCSEVCKFLSA [C32W]	-0.861 ± 0.088
KLKCQHCNHLFATKPELLFYKGKMFLFCGKNESDEYKKKNKVVAMCDYCKLQKIIKETVRFSGVDKPFCSEVCKFLSA [C32E]	-1.01 ± 0.096
KLKCQHCNHDFATKPELLFYKGKMFLFCGKNCSDEYKKKNKVVAMCDYCKLQKIIKETVRFSGVDKPFCSEVCKFLSA [L10D]	-0.002 ± 0.077
KLKCQHCNHLFATKPELLFKKGKMFLFCGKNCSDEYKKKNKVVAMCDYCKLQKIIKETVRFSGVDKPFCSEVCKFLSA [Y20K]	-0.123 ± 0.046
KLKCQHCNHLFATKPELLFIKGKMFLFCGKNCSDEYKKKNKVVAMCDYCKLQKIIKETVRFSGVDKPFCSEVCKFLSA [Y20I]	0.031 ± 0.1
KLKCQHCNHLFATKPELLFYKGKMFLFCGKNCSDEYKKKNKVVAMCDYCKLQKIIKETVRFSGVDKPFCSEVCKFLSW [A78W]	-0.284 ± 0.42
KLKCQHCNHLFATKPELLFYKGKMFLFCGKNCSDEYKKKNKVVAMCDYCKLQKIIKETVRFSGVDKPFCSEVCKFLSG [A78G]	0.022 ± 0.18
KLKCQHCNHLFATKPELLFYKGKMFLFCGKNCSDEYKKKNKVVAMCDYCKLQKIIKETVRFSGVDKPFCSEVCKFLSS [A78S]	-0.11 ± 0.14
KLKCQHCNHLFATKPELLFYKGSMFLFCGKNCSDEYKKKNKVVAMCDYCKLQKIIKETVRFSGVDKPFCSEVCKFLSA [K23S]	-0.058 ± 0.039
KLKCQHCNHLFATKPELLFYKGKMFLFCGKNCSDEYKKKTKVVAMCDYCKLQKIIKETVRFSGVDKPFCSEVCKFLSA [N40T]	-0.014 ± 0.18
KLKCQHCNHLFATKPELLFYKGKMFLFCGKNCSDEYKKKNKVVAMCDYCKLWKIIKETVRFSGVDKPFCSEVCKFLSA [Q52W]	-0.483 ± 0.2
KLKCQHCNHLFATKPELLFYKGKMFLFCGKNCSDEYKKKNKVVAMCDYCKLMKIIKETVRFSGVDKPFCSEVCKFLSA [Q52M]	0.234 ± 0.23
KLKCQHCNFLFATKPELLFYKGKMFLFCGKNCSDEYKKKNKVVAMCDYCKLQKIIKETVRFSGVDKPFCSEVCKFLSA [H9F]	-0.153 ± 0.06
KLKCQHCNNLFATKPELLFYKGKMFLFCGKNCSDEYKKKNKVVAMCDYCKLQKIIKETVRFSGVDKPFCSEVCKFLSA [H9N]	-0.011 ± 0.078
KLKCQHCNMLFATKPELLFYKGKMFLFCGKNCSDEYKKKNKVVAMCDYCKLQKIIKETVRFSGVDKPFCSEVCKFLSA [H9M]	0.022 ± 0.052
KLKCQHCNHLFATKPEDLFYKGKMFLFCGKNCSDEYKKKNKVVAMCDYCKLQKIIKETVRFSGVDKPFCSEVCKFLSA [L17D]	-0.044 ± 0.051
KLKCQHCNHLFATKPELLFYKGKMFLFCGKNCSDEYKKKNKVVAMCDYCKLQKIIKELVRFSGVDKPFCSEVCKFLSA [T58L]	-0.546 ± 0.45
KLKCQHCNHLFATKPELLFYKGKMFLFCGKNCSDEYKKKNKVVAMCDYCKLQKIIKEHVRFSGVDKPFCSEVCKFLSA [T58H]	0.511 ± 0.41

Variant	abundance fitness
KLKCQHCNHLFATKPELLFYKGKCFLFCGKNCSDEYKKKNKVVAMCDYCKLQKIIKETVRFSGVDKPFCSEVCKFLSA [M24C]	-0.004 ± 0.041
KLKCQHCNHLFATKPELLFYKGKMFLFCGKNCSDEYKKKNKVVAMCDYCKLQKIIKETVRFSGVDKPFCSEVMKFLSA [C73M]	-0.142 ± 0.15
KLKCQHCNHLFANKPELLFYKGKMFLFCGKNCSDEYKKKNKVVAMCDYCKLQKIIKETVRFSGVDKPFCSEVCKFLSA [T13N]	-0.128 ± 0.092
KLKCQHCNHLFAGKPELLFYKGKMFLFCGKNCSDEYKKKNKVVAMCDYCKLQKIIKETVRFSGVDKPFCSEVCKFLSA [T13G]	-0.024 ± 0.029
KLKCQHCNHLFATKPELLFYKGKMFLFCGKNCSDEYKKKNKVVRMCDYCKLQKIIKETVRFSGVDKPFCSEVCKFLSA [A44R]	-0.495 ± 0.1
KLKCQHCNHLFATKPELLFYKGKMFLFCGKNCSDEYKKKNKVVGMCDYCKLQKIIKETVRFSGVDKPFCSEVCKFLSA [A44G]	-0.132 ± 0.076
KLKCQHLNHLFATKPELLFYKGKMFLFCGKNCSDEYKKKNKVVAMCDYCKLQKIIKETVRFSGVDKPFCSEVCKFLSA [C7L]	-0.951 ± 0.075
KLKCQHCNHLFATKPELLFYKGKMFLFCGKNCSDEYKKKNKVVALCDYCKLQKIIKETVRFSGVDKPFCSEVCKFLSA [M45L]	-0.671 ± 0.18
KLKCQHCNHLFATKPRLLFYKGKMFLFCGKNCSDEYKKKNKVVAMCDYCKLQKIIKETVRFSGVDKPFCSEVCKFLSA [E16R]	-0.102 ± 0.029
KLKCQHCNHLFATKPELLFYKGKMFLFCGKNCSDEYKKKNKVVAMCDYVKLQKIIKETVRFSGVDKPFCSEVCKFLSA [C49V]	-1.07 ± 0.17
KLKCQHCNHLFATKPELLFYKGKMFLFCGKNCSDEYKKKNKVVAMCDYGKLQKIIKETVRFSGVDKPFCSEVCKFLSA [C49G]	-0.54 ± 0.083
KLKCQHCNHLFATKPELLFYKGKMFLFCGKNCSDEYKKKNKVVAMCDYCKLQKIIKETVRKSGVDKPFCSEVCKFLSA [F61K]	-0.027 ± 0.18
KLKCQHCNHLFATKPELLFYKGKMFLFCGKVCSDEYKKKNKVVAMCDYCKLQKIIKETVRFSGVDKPFCSEVCKFLSA [N31V]	-0.077 ± 0.031
KLKCQHCNHLFATKPELLFYKGKMFLFCGKNCSDEYKKKNKVVAMCTYCKLQKIIKETVRFSGVDKPFCSEVCKFLSA [D47T]	-0.041 ± 0.15
KLKCQHCNHLFATKPELLFYKGKMFLFCGKNCSDEYKKKNKVVAMCDYCKLQKIIKETVRFSGVDKPFCSRVCKFLSA [E71R]	-0.111 ± 0.081
KLKCQHCNHLFATKPELLFYKGKMFLFCGKNCSDEYKKKNKVVAMCDYCKLQKIIKMTVRFSGVDKPFCSEVCKFLSA [E57M]	0.605 ± 0.12
KLKCQHCNHLFATKPELLFYKGKMFLFCGKNCSDEYKKKNKVVAMCDYCKLQKIIKATVRFSGVDKPFCSEVCKFLSA [E57A]	-0.129 ± 0.1
KLKCQHCNHLFATKPELLFYKGKMFLFCGKNCSDEYKEKNKVVAMCDYCKLQKIIKETVRFSGVDKPFCSEVCKFLSA [K38E]	-0.014 ± 0.041
KLKCQHCNHLFATKPELLFYKGKMFLFCGKNCSDEYKQKNKVVAMCDYCKLQKIIKETVRFSGVDKPFCSEVCKFLSA [K38Q]	-0.053 ± 0.042
KLKCQHCNHLFATKPELLFYKGKMFLFCGKNCSDEYKKKNKVVAMCDYCKLQKIIKETVRFSGEDKPFCSEVCKFLSA [V64E]	0.09 ± 0.1
KLKGQHCNHLFATKPELLFYKGKMFLFCGKNCSDEYKKKNKVVAMCDYCKLQKIIKETVRFSGVDKPFCSEVCKFLSA [C4G]	-0.772 ± 0.035
KLKEQHCNHLFATKPELLFYKGKMFLFCGKNCSDEYKKKNKVVAMCDYCKLQKIIKETVRFSGVDKPFCSEVCKFLSA [C4E]	-0.81 ± 0.067
KLKCQHCNHLFATCPELLFYKGKMFLFCGKNCSDEYKKKNKVVAMCDYCKLQKIIKETVRFSGVDKPFCSEVCKFLSA [K14C]	-0.243 ± 0.096
KLKCQHCNHLFATNPELLFYKGKMFLFCGKNCSDEYKKKNKVVAMCDYCKLQKIIKETVRFSGVDKPFCSEVCKFLSA [K14N]	-0.1 ± 0.058

Variant	abundance fitness
KLKCQHCNHLFATKPELLFYKGKMFLFCMKNCSDEYKKKNKVVAMCDYCKLQKIIKETVRFSGVDKPFCSEVCKFLSA [G29M]	-0.084 ± 0.089
KLKCQHCIHLFATKPELLFYKGKMFLFCGKNCSDEYKKKNKVVAMCDYCKLQKIIKETVRFSGVDKPFCSEVCKFLSA [N8I]	-0.168 ± 0.046
KLKCQHCNHLFATKPELLFYKGKMFLFCGKNCSDEYKKKNKVVAMCDYCKLQKIIKETVRFSGVDKPFCSEVCKPLSA [F75P]	0.039 ± 0.12
KLKCQHCNHLFATKPELLFYKGKMFLFCGKNCSDEYKKKNKVVAMCDYCKLQKIIKETVRFSGVDKPFCSEVCKYLSA [F75Y]	-0.699 ± 0.42
KLKCQHCNHLFATKPELLFYKGKMFLFCGKNCSDEYKKKNKVVAMCDYCKLQKIIKETVRFSGVDKRFCSEVCKFLSA [P67R]	0.042 ± 0.081
KLKCQHCNHLFATKPELLFYKGKMFLFCGKNCSDEYKKKNKVVAMCDYCKLQKIIKETVRFSGVDKGFCSEVCKFLSA [P67G]	0.07 ± 0.1
KLKCQHCNHLFATKPELLFYKGKMFEFCGKNCSDEYKKKNKVVAMCDYCKLQKIIKETVRFSGVDKPFCSEVCKFLSA [L26E]	0.118 ± 0.038
KLKCQHCNHLFATKPELLFYKGKMFLFCGKNCSPEYKKKNKVVAMCDYCKLQKIIKETVRFSGVDKPFCSEVCKFLSA [D34P]	-0.691 ± 0.084
KLKCQHCNHLFATKPELLFYKGKMFLFCGCNCSDEYKKKNKVVAMCDYCKLQKIIKETVRFSGVDKPFCSEVCKFLSA [K30C]	-0.24 ± 0.059
KLKCQHCNHLFATKPELLFYKGKMFLFCGTNCSDEYKKKNKVVAMCDYCKLQKIIKETVRFSGVDKPFCSEVCKFLSA [K30T]	-0.123 ± 0.046
KLKCQHCNHLFATKPELLFYKGKMFLFCGKNCSDEYKKKNKVVAMCDYCKLQKIIKETVRFPGVDKPFCSEVCKFLSA [S62P]	-0.325 ± 0.12
KLKCQHCNHLFATKPELLFYKGKMFLFCGKNCSDEYKKKNKVVAMCDYCKLQKPIKETVRFSGVDKPFCSEVCKFLSA [I54P]	0.442 ± 0.1
KLKCQHCNHLFATKPELLFYKGKMFLFRGKNCSDEYKKKNKVVAMCDYCKLQKIIKETVRFSGVDKPFCSEVCKFLSA [C28R]	-0.877 ± 0.065
KLKCQHCNHLFATKPELLFYKGKMFLFSGKNCSDEYKKKNKVVAMCDYCKLQKIIKETVRFSGVDKPFCSEVCKFLSA [C28S]	-0.969 ± 0.11
KLKCQHCNHLFATKWELLFYKGKMFLFCGKNCSDEYKKKNKVVAMCDYCKLQKIIKETVRFSGVDKPFCSEVCKFLSA [P15W]	-0.534 ± 0.041
KLKCQHCNHLFATKPELLFYKGKMFLFCGKNCSDEYKKKNKVVAMCDYCKLQKIKKETVRFSGVDKPFCSEVCKFLSA [I55K]	-0.138 ± 0.46
KLKCQHCNHLFATKPELLFYKGKMFLFCGKNCSDEYKKKNKVVAMCDYCKLQKIIKETVRFSGVDKPFCSEVCKFLVA [S77V]	-0.857 ± 0.24
KLKCQHCNHLFATKPELLFYRGKMFLFCGKNCSDEYKKKNKVVAMCDYCKLQKIIKETVRFSGVDKPFCSEVCKFLSA [K21R]	-0.025 ± 0.029
KLKCQHCNHLFATKPELLFYKGKMFLFCGKNCSDEYKKKNKVVAMCDYCKLQKIIKETVRFSGVDEPFCSEVCKFLSA [K66E]	0.161 ± 0.16
KLKCQHCNHLFATKPELLFYKGKMFLFCGKNCSDEYKKKNKVVAMCDYCMLQKIIKETVRFSGVDKPFCSEVCKFLSA [K50M]	-0.685 ± 0.27
KLKCQHCNHLFATKPELLFYKGKMFLFCGKNCSDEYKKKNKVVAMCDECKLQKIIKETVRFSGVDKPFCSEVCKFLSA [Y48E]	-0.861 ± 0.28
KLKCQHCNHLFATKPELLFYKGKMFLFCGKNCSDEYKKKNKVVAMCDWCKLQKIIKETVRFSGVDKPFCSEVCKFLSA [Y48W]	-0.276 ± 0.11
